Data reported in publication PMC11104609, “Discovery of allosteric regulators with clinical potential to stabilize alpha-L-iduronidase in mucopolysaccharidosis type I” (PLOS ONE, 2024).

Assays:
IDUA [1] = target: T1, IDUA (Homo sapiens, UniProt P35475); assay: IDUA enzymatic activity in patient-derived fibroblasts after rhIDUA with or without compound (4-MUI substrate); assay type: cell-based; set-up: Institute of Biotechnology and Biomedicine, Autonomous University of Barcelona (UAB), Bellaterra, Spain; conditions: rhIDUA 1.25 nM alone
T1 sequence (P35475 28-653): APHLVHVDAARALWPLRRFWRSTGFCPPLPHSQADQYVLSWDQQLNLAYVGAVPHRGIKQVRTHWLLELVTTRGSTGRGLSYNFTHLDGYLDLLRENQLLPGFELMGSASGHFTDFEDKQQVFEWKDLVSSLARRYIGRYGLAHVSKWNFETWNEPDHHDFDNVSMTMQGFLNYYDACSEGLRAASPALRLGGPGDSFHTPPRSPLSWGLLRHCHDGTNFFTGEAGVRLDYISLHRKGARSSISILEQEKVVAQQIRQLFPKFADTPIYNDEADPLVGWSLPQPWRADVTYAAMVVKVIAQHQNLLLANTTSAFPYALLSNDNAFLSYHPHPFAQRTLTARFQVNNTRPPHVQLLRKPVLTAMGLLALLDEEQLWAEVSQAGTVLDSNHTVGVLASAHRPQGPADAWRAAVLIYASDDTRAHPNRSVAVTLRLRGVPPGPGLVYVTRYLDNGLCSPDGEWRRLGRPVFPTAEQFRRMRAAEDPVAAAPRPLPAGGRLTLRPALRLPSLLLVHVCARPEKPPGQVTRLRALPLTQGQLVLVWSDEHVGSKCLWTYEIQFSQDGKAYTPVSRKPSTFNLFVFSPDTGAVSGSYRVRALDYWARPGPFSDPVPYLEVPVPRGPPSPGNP
Experimental: Fibroblasts derived from Hurler (GM00798) and Hurler/Scheie patients (GM02845, GM00512, GM01898, GM00963) were purchased from Coriell (Camden, NJ). Fibroblasts were cultured in Dulbecco’s modified Eagle’s medium (DMEM, Gibco) supplemented with 10% inactivated fetal bovine serum (FBS, Gibco) and 1% penicillin-streptomycin (Thermo Fisher Scientific, Waltham, MA, USA) (growth medium) at 37 °C under 5% CO2. The effect of the protein and/or compound in enhancing IDUA enzymatic activity was evaluated as follows: The specified patient-derived fibroblasts were seeded at 4x10^4 cells per well in 12-well cell culture plates in growth medium. Subsequently, cells were incubated with indicated dose of rhIDUA (obtained from the Institute of Biotechnology and Biomedicine in the UAB, Bellaterra, Spain) in the absence or presence of the compound #18 (GT-01803) for the specified incubation times at 50 μM. After incubation, cells were washed with PBS and detached using Trypsin-EDTA solution (Sigma Aldrich, St. Louis, MO, USA) to prepare cell pellets. The pellets were stored at -80 °C until activity assays were performed. IDUA activity in cell lysates was measured using 4-methylumbelliferyl IDUA substrate (4-MUI, Glycosynth Ltd., #44076, Warrington, UK). Briefly, lysates were resuspended in 120 μL of 0.9% NaCl containing 0.01% Triton X-100 lysis buffer to promote membrane disruption. Next, the cell suspension was sonicated and centrifuged to pellet insoluble materials. Then, 25 μL of lysates were mixed with 25 μL of 200 μM 4-MUI substrate solution in 0.4 M sodium formate, pH 3.5, 0.2% Triton X-100 buffer and incubated for 60 mins at 37 °C. The reaction was stopped by adding 200 μL of 0.5 M Glycine/0.3 M NaOH buffer, pH 10. The liberated 4-methylumbelliferone (4-MU) was measured on a Glomax® Discover microplate reader with excitation at 340 nm and emission at 460 nm. Protein quantification was determined using Pierce BCA Protein Assay Kit (Thermo Fisher Scientific, Waltham, MA, USA). Measurements were interpolated in a 4-MU standard curve and normalised by protein quantity.
For Fig 6A, rhIDUA concentrations of 0.187, 0.375 and 1.25 nM were tested in GM02845 fibroblasts over a 96-hour period, both in the presence and absence of the compound #18 (GT-01803) at 50 μM. In Fig 6B, 1.25 nM of rhIDUA was evaluated in GM02845, GM00798, GM00512, and GM00963 fibroblasts for 96h, with and without the compound #18 (GT-01803) at 50 μM. In Fig 6C, a concentration of 1.25 nM of the protein was applied to fibroblasts for 4, 8, 24 and 96h, with and without the compound #18 (GT-01803) at 50 μM.

IDUA [2] = target: T1, IDUA; assay: Denaturation prevention (isothermal denaturation) assay with SYPRO Orange; assay type: binding; set-up: purchased R&D Systems; conditions: pH 7.0 and 37 °C, no compound
Experimental: The capacity of the compounds to stabilize IDUA in neutral pH buffer was assessed using the denaturation prevention assay. Briefly, rhIDUA (obtained from the Institute of Biotechnology and Biomedicine in the UAB, Bellaterra, Spain) was combined to a final concentration of 1 μM with 5X SYPRO Orange and 30 μM of the corresponding compound in a final reaction volume of 25 μL in 100 mM Hepes, 20 mM MgCl2, pH 7 buffer, or 25 mM NaAc, 150 mM NaCl, pH 5.2. Reactions were incubated at 37 °C, and SYPRO Orange fluorescence intensity was monitored at the indicated time points using Glomax® Discover microplate reader (Promega, Madison, WI, USA). Two independent experiments in triplicate at one concentration (30μM) of compound #18 (GT-01803) were performed for denaturation prevention assays.

mean IDUA cell activity at 96h (IDUA [1]; GM02845 fibroblasts (Fig 6C)): 75.63 nmol/h/mg
mean IDUA cell activity (IDUA [1]; GM02845 fibroblasts, 96 h (Fig 6A)): 53.37 nmol/h/mg
stability of rhIDUA at physiological conditions (IDUA [2]): unstable
B1: rhIDUA: recombinant human alpha-L-iduronidase, enzyme replacement therapy protein (protein, UniProt P35475 28-653, looked up)
Alpha-L-iduronidase: APHLVHVDAARALWPLRRFWRSTGFCPPLPHSQADQYVLSWDQQLNLAYVGAVPHRGIKQVRTHWLLELVTTRGSTGRGLSYNFTHLDGYLDLLRENQLLPGFELMGSASGHFTDFEDKQQVFEWKDLVSSLARRYIGRYGLAHVSKWNFETWNEPDHHDFDNVSMTMQGFLNYYDACSEGLRAASPALRLGGPGDSFHTPPRSPLSWGLLRHCHDGTNFFTGEAGVRLDYISLHRKGARSSISILEQEKVVAQQIRQLFPKFADTPIYNDEADPLVGWSLPQPWRADVTYAAMVVKVIAQHQNLLLANTTSAFPYALLSNDNAFLSYHPHPFAQRTLTARFQVNNTRPPHVQLLRKPVLTAMGLLALLDEEQLWAEVSQAGTVLDSNHTVGVLASAHRPQGPADAWRAAVLIYASDDTRAHPNRSVAVTLRLRGVPPGPGLVYVTRYLDNGLCSPDGEWRRLGRPVFPTAEQFRRMRAAEDPVAAAPRPLPAGGRLTLRPALRLPSLLLVHVCARPEKPPGQVTRLRALPLTQGQLVLVWSDEHVGSKCLWTYEIQFSQDGKAYTPVSRKPSTFNLFVFSPDTGAVSGSYRVRALDYWARPGPFSDPVPYLEVPVPRGPPSPGNP
